From patent US20120100604A1, “METHODS AND COMPOSITIONS FOR GENERATING SELF ATTENUATING GENETIC CIRCUITRY” (THE REGENTS OF THE UNIVERSITY OF CALIFORNIA, priority 2008, published 2012)

Key:
human satellite cells = experiment: Myogenic regenerative capacity of human satellite cells (proliferating fusion-competent myoblasts, desmin/BrdU); format: cell-based; settings: young and old human satellite cells in culture
Protocol: Myofiber and satellite cell cultures were isolated from basal state human biopsies, in a manner similar to those previously described for the mouse model (Conboy et al. (2003) Science 302:1575-1577). Whole muscle biopsies were prepared for myofiber fragments by enzymatic digestion −37° C. in DMEM (Invitrogen, Carlsbad, Calif.)/Pen-Strep (Invitrogen)/0.2% Collagenase Type IIA (Sigma), trituration, and multiple sedimentation and washing procedures. Isolated satellite cells and myofibers were resuspended in growth medium (Ham's F10 nutrient mixture—Mediatech, Inc., Herndon, Va.), 10% BGS, 5 ng/ml hbFGF (Invitrogen) and 1% Pen-Strep, and cultured on Matrigel (diluted 1:250). Blood was collected from subjects for sera isolation. Briefly, blood cells were coagulated followed by centrifugation at 8,000 rpm, 4° C. in a microfuge for 3 minutes. […]
To examine effects of TGF-β on myogenic properties of human muscle stem cells, exogenous molecule was added to young and old human satellite cells in culture. Myogenic capacity was determined based on numbers of fusion-competent, proliferating myoblasts, e.g., cells that rapidly (in approximately 2 hours) incorporate BrdU, co-express desmin and MyoD and fuse into eMyHC+myotubes when transferred to mitogen-low medium. […]

[1] = tested on: MAPK pathway / Notch in human satellite cells; experiment: Western blot of Delta, active Notch and pERK in human satellite cells cultured with MAPK agonists and antagonists; format: cell-based; settings: human satellite cells in culture
Protocol: Myofiber and satellite cell cultures were isolated from basal state human biopsies, in a manner similar to those previously described for the mouse model (Conboy et al. (2003) Science 302:1575-1577). Whole muscle biopsies were prepared for myofiber fragments by enzymatic digestion −37° C. in DMEM (Invitrogen, Carlsbad, Calif.)/Pen-Strep (Invitrogen)/0.2% Collagenase Type IIA (Sigma), trituration, and multiple sedimentation and washing procedures. Isolated satellite cells and myofibers were resuspended in growth medium (Ham's F10 nutrient mixture—Mediatech, Inc., Herndon, Va.), 10% BGS, 5 ng/ml hbFGF (Invitrogen) and 1% Pen-Strep, and cultured on Matrigel (diluted 1:250). Blood was collected from subjects for sera isolation. Briefly, blood cells were coagulated followed by centrifugation at 8,000 rpm, 4° C. in a microfuge for 3 minutes.
For Western Blot analysis, whole skeletal muscle lysates were prepared in lysis buffer (50 mM Tris, 150 mM NaCl, 1% NP40, 0.25% sodium deoxycholate and 1 mM EDTA, pH 7.4) with addition of protease inhibitor cocktail (Sigma) and 1 mM PMSF. Phosphatase activity was inhibited by 1 mM sodium fluoride and 1 mM sodium orthovanadate. For most assays, 30 μg protein extracts were run on pre-cast SDS PAGE gels (BioRad). Primary antibodies were diluted in 5% non-fat milk/1× PBST, and nitrocellulose membranes were incubated with antibody mixtures overnight at 4° C. HRP-conjugated secondary antibodies (Santa Cruz Biotech) were diluted 1:1000 in 1× PBST/1% BSA and incubated for 1 hour at room temperature. Blots were developed using Western Lightning ECL reagent (Perkin Elmer) and analyzed with Bio-Rad Gel Doc/Chemi Doc Imaging System and Quantity One software. Results were quantified by digitizing the data and normalizing pixel density of examined protein by actin-specific pixel density.
The levels of Delta, amounts of active Notch and the efficiency of myogenic responses in human satellite cells cultured in the presence of agonists and antagonists of MAPK pathway were investigated. […]

[2] = tested on: muscle stem cells (satellite cells); experiment: Myogenic responses of mouse muscle stem cells in young or old mouse sera (TGF-β1 depletion and add-back, Wnt3A, FRP3); format: cell-based
Protocol: To examine the relative role of circulating TGF-β1 in the age-specific inhibition of muscle stem cell responses, TGF-β1 was depleted from young and old mouse sera and then added back in a range of concentrations. Muscle stem cells derived from young and old mice were cultured in the presence of young and old mouse sera that differed only in the levels of TGF-β1, and the regenerative responses of these cells were assayed. Serum was depleted of TGF-β1 by incubation with a TGF-β1 specific antibody (or an isotype-matched control IgG) followed by binding and removal of the TGF-β1-antibody complexes (or IgG control antibody complexes, e.g. control sera) using protein G-coated agarose beads. The success in the TGF-β1 depletion was confirmed by ELISA. The myogenic regenerative potential of muscle stem cells was quantified based on their ability to rapidly (overnight) generate de-novo myogenic lineages: BrdU-incorporating desmin+myoblasts (myogenic proliferation) that differentiate into post-mitotic eMyHC+myotubes (myogenic differentiation). The time course of such de-novo in vitro myogenesis that recapitulates the in vivo muscle repair is shown in FIG. 14A-D. Myogenic proliferation (at 24-28 hours of culture) and myogenic differentiation (at 48-72 hours of culture) were consistently higher for young satellite cells as compared to old satellite cells and in young sera as compared to old sera at all time points (FIGS. 17 and 18). The non-myogenic, desmin negative proliferating fibroblasts (known to contaminate satellite cell preparations at ˜2-5% and to expand in the presence of old sera or high levels of TGF-β (Carlson et al., 2008) were less numerous in cultures with experimentally calibrated levels of TGF-β1 (FIG. 15) and also declined in cultures with exogenous Wnt 3A (FIG. 16A).
Recombinant TGF-β1 was added at a range of concentrations to these mouse sera (depleted from endogenous TGF-β1) and assayed the regenerative responses of muscle stem cells, as above. […] The levels of TGF-β1 that are permissive for myogenic responses correspond to the range of bioactive TGF-β1 found in young blood sera, while the inhibitory range corresponds to the levels typical of aged circulation. The threshold mode of TGF-β1-imposed inhibition of muscle repair established here, also correlate well with the results of heterochronic parabiosis.
A similar rescue of satellite cell responses in the presence of old serum was reported to be achieved by inhibition of Wnt via FRPs, and exogenous Wnt3A was reported to inhibit satellite cell myogenic responses, in favor of fibroblast trans-differentiation (Brack et al., (2007), Science, 317:807-810). Thus, an investigation was conducted to determine whether Wnt was potentially synergistic with the TGF-β1-dependent attenuation of myogenic potential. Myogenic potential of young and old satellite cells was examined in the following conditions: young serum with exogenous Wnt3A (by itself or simultaneously with exogenous TGF β1) or old serum with exogenous FRP3 (by itself or simultaneously with TGF-β neutralization). […] In fact, consistent with the previously reported pro-myogenic activity of Wnt, Wnt3A […].
Myofiber explant cultures and primary myogenic progenitor cells were generated from C57/Bl6 mice using methods known in the art (see e.g., Conboy et al., (2003), Science, 302:1575-1577). Myoblasts were maintained in growth media (Ham's F-10, 20% FBS, 5 ng/ml basic-FGF, and penicillin-streptomycin). Opti-MEM was used to culture myofibers explants in 10% young, 10% old, or 10% young and old mouse serum (5% each). Differentiation media consisted of DMEM and 5% horse serum. Basic-FGF was obtained from Sigma (St. Louis, Mo.) and R&D systems (Minneapolis, Minn.), Opti-MEM was obtained from Invitrogen (Carlsbad, Calif.), and all other cell culture reagents were obtained from Cellgro (Herndon, Va.).

old muscle repair = experiment: Muscle regeneration after CTX injury in mice given systemic TGF-β attenuators; format: in vivo, mouse
Protocol: Five days before the end of treatment, muscle was injured. At the end of treatment, animals were sacrificed and muscle was collected. BrdU was injected (intraperitoneal) at 3 days post-injury to label proliferating, fusion-competent myoblasts.
Experiments were conducted to rejuvenate muscle repair in old tissue by attenuating TGF-β pathway activity through systemic pharmacological intervention, in vivo. Three independent attenuators were used: (1) a small molecule inhibitor of TGF-β RI Kinase, (2) TGF-β neutralizing antibody and (3) a decoy composed of the extracellular portion of TGF-β receptor II. These molecules were administered systemically to mice, twice daily. After 10 days of dosage, muscle was injured by CTX, and 5 days after injury and BrdU administration the muscle was harvested, frozen, and examined histologically.
To control for the potential differences in the half-life of anti-TGF-β neutralizing antibody as compared to TGF-β RI Kinase inhibitor, constitutive systemic delivery of these molecules was provided by osmotic subcutaneous pumps for four weeks.

TGF-β1 = experiment: ELISA of circulating TGF-β1 in treated old mice; format: in vivo, mouse
Description: Control injections/pumps of goat IgG yielded data typical of young and old untreated mice for muscle repair and TGF-β1 ELISA.

TGF-β/pSmad signaling = experiment: Western blot of pSmad3 and TGF-β1 in muscle of treated old mice; format: in vivo, mouse; settings: osmotic pumps

Molecule: FGF-2: MAPK agonist FGF-2
- myogenic regenerative capacity (proliferating fusion-competent myoblasts, desmin/BrdU) (human satellite cells): significantly enhanced
- Delta levels [1]: induced
- active Notch levels [1]: induced
- levels of pERK [1]: induced

Molecule: TGF-β1: recombinant TGF-β1 added to cultures or depleted sera [reference compound]
- concentration of TGF-β1 that alone suffices for inhibition of myogenic satellite cell responses ([2]; recombinant TGF-β1 added to mouse sera depleted of endogenous TGF-β1, 1-5 ng/ml and higher): 1 to 5 ng/mL
- myogenic regenerative capacity (proliferating fusion-competent myoblasts, desmin/BrdU) (human satellite cells): dramatically reduced

B1: Wnt3A: exogenous Wnt3A (protein, UniProt P56704 19-352, looked up)
Protein Wnt-3a: SYPIWWSLAVGPQYSSLGSQPILCASIPGLVPKQLRFCRNYVEIMPSVAEGIKIGIQECQHQFRGRRWNCTTVHDSLAIFGPVLDKATRESAFVHAIASAGVAFAVTRSCAEGTAAICGCSSRHQGSPGKGWKWGGCSEDIEFGGMVSREFADARENRPDARSAMNRHNNEAGRQAIASHMHLKCKCHGLSGSCEVKTCWWSQPDFRAIGDFLKDKYDSASEMVVEKHRESRGWVETLRPRYTYFKVPTERDLVYYEASPNFCEPNPETGSFGTRDRTCNVSSHGIDGCDLLCCGRGHNARAERRREKCRCVFHWCCYVSCQECTRVYDVHTCK
- generation of fusion-competent proliferating myoblasts by satellite cells ([2]; Wnt3A simultaneously with exogenous TGF-β1, young serum): enhanced
- myotube formation ([2]; exogenous Wnt3A): enhanced
- presence of non-myogenic fibroblastic cells (desmin-BrdU+) ([2]; exogenous Wnt3A): actually reduced
- myogenic potential in young serum ([2]; young serum with exogenous Wnt3A): did not reduce

B2: FRP: exogenous FRP3, inhibitor of Wnt (protein, UniProt Q92765 33-325, looked up)
Secreted frizzled-related …: AACEPVRIPLCKSLPWNMTKMPNHLHHSTQANAILAIEQFEGLLGTHCSPDLLFFLCAMYAPICTIDFQHEPIKPCKSVCERARQGCEPILIKYRHSWPENLACEELPVYDRGVCISPEAIVTADGADFPMDSSNGNCRGASSERCKCKPIRATQKTYFRNNYNYVIRAKVKEIKTKCHDVTAVVEVKEILKSSLVNIPRDTVNLYTSSGCLCPPLNVNEEYIIMGYEDEERSRLLLVEGSIAEKWKDRLGKKVKRWDMKLRHLGLSKSDSSNSDSTQSQKSGRNSNPRQARN
- myogenic responses in old serum ([2]; old serum with exogenous FRP3): did not rescue
- regeneration of old muscle in vivo (old muscle repair; experimental attenuation of Wnt by FRP): did not improve

B3: soluble TGF-β receptor II: a decoy composed of the extracellular portion of TGF-β receptor II (protein, UniProt P37173 23-166, looked up)
extracellular domain: TIPPHVQKSVNNDMIVTDNNGAVKFPQLCKFCDVRFSTCDNQKSCMSNCSITSICEKPQEVCVAVWRKNDENITLETVCHDPKLPYHDFILEDAASPKCIMKEKKKPGETFFMCSCSSDECNDNIIFSEEYNTSNPDLLLVIFQ
modifications: extracellular domain
- circulating levels of TGF-β1 (TGF-β1): failed to reduce
- levels of TGF-β1 in old muscle (TGF-β/pSmad signaling): not
- levels of pSmad3 in old muscle (TGF-β/pSmad signaling): not
- muscle regeneration / myogenic regenerative capacity (old muscle repair; old mice, systemic administration twice daily, CTX injury after 10 days, 5 days post-injury): did not result in the rejuvenation
